{"source": "patent US20230285504A1", "about": "“INHIBITION OF REPERFUSION INJURY WITH A PSD-95 INHIBITOR” (NONO INC., priority 2020, published 2023)", "molecules": {"B1": {"name": "Plasmin: serine protease activated by thrombolytics to dissolve fibrin blood clots; cleaves nerinetide (protein, UniProt P00747 20-580; P00747 581-810, looked up)", "Plasmin heavy chain A": "EPLDDYVNTQGASLFSVTKKQLGAGSIEECAAKCEEDEEFTCRAFQYHSKEQQCVIMAENRKSSIIIRMRDVVLFEKKVYLSECKTGNGKNYRGTMSKTKNGITCQKWSSTSPHRPRFSPATHPSEGLEENYCRNPDNDPQGPWCYTTDPEKRYDYCDILECEEECMHCSGENYDGKISKTMSGLECQAWDSQSPHAHGYIPSKFPNKNLKKNYCRNPDRELRPWCFTTDPNKRWELCDIPRCTTPPPSSGPTYQCLKGTGENYRGNVAVTVSGHTCQHWSAQTPHTHNRTPENFPCKNLDENYCRNPDGKRAPWCHTTNSQVRWEYCKIPSCDSSPVSTEQLAPTAPPELTPVVQDCYHGDGQSYRGTSSTTTTGKKCQSWSSMTPHRHQKTPENYPNAGLTMNYCRNPDADKGPWCFTTDPSVRWEYCNLKKCSGTEASVVAPPPVVLLPDVETPSEEDCMFGNGKGYRGKRATTVTGTPCQDWAAQEPHRHSIFTPETNPRAGLEKNYCRNPDGDVGGPWCYTTNPRKLYDYCDVPQCAAPSFDCGKPQVEPKKCPGR", "Plasmin light chain B": "VVGGCVAHPHSWPWQVSLRTRFGMHFCGGTLISPEWVLTAAHCLEKSPRPSSYKVILGAHQEVNLEPHVQEIEVSRLFLEPTRKDIALLKLSSPAVITDKVIPACLPSPNYVVADRTECFITGWGETQGTFGAGLLKEAQLPVIENKVCNRYEFLNGRVQSTELCAGHLAGGTDSCQGDSGGPLVCFEKDKYILQGVTSWGLGCARPNKPGVYVRVSRFVTWIEGVMRNN", "modifications": "Plasmin", "notes": "cleaves nerinetide"}}, "key": {"[1]": {"conditions": "cited from earlier work"}, "[2]": {"test_system": "embolic middle cerebral artery occlusion (eMCAO)", "experimental": "Nerinetide (7.6 mg/kg) was administered as an intravenous bolus injection either 30 minutes before, or simultaneously with, the onset of a 60-minute infusion of rt-PA (5.4 mg/kg with a 10% bolus followed by 90% over 60 minutes). […] Experimental timeline. […] Hemispheric Infarct volume measurements 24 hours after eMCAo. […] Percentage of hemispheric brain swelling 24 hours after eMCAo and (D). Neurological scores 24 hours after eMCAo. Treatments were administered intravenously at the times indicated in (A). Bars represent mean±SD, with all individual data points plotted. Significant differences (in B) and (in C) are indicated with an asterisk when compared to the control group/nerinetide alone or with a number sign when compare to the thrombolytic agent (one-way ANOVA post hoc Tukey's correction for multiple comparisons test, *P<0.01 or #P <0.01, respectively) N=12-15 animals/group. Significant differences (in D) are indicated with an asterisk when compared to the control group/nerinetide alone or with a number sign when compare to the thrombolytic agent (Kruskal-Wallis analysis of variance on ranks with a post-hoc Dunn's correction for multiple comparisons test, *P<0.01 or #P<0.01, respectively).\nTo test this, male Sprague-Dawley rats (10-12 weeks old; 270-310 g; Charles River, Montreal, QC, Canada) were subjected to embolic middle cerebral artery occlusion (eMCAO), produced by the introduction of an autologous blood thrombus into the middle cerebral artery. Reperfusion was achieved by treatment with intravenous alteplase at a total dose of 5.4 mg/kg beginning at 90 minutes after ischemia onset. Alteplase was administered using the human injection protocol in which 10% of the total dose is given as a bolus, with the remainder 90% of the dose being given over a 60-minute infusion. The dose of alteplase was 6 times the human dose, in anticipation that the rat fibrinolytic system may be less sensitive to human recombinant tPA. […] Nerinetide was administered either 30 minutes prior to, or concurrently with, the start of the alteplase administration (FIG. 7A) at a dose of 7.6 mg/kg. […] Infarct volumes, hemispheric swelling and neurological scores were evaluated at 24 hours."}}, "note": "Where two headings read alike, the source gives them in different places."}
{"molecule": "alteplase [reference compound]", "values": [{"measurement": "plasma half-life in human plasma", "setting": "[1]; in vivo", "value": "about five"}, {"measurement": "reduction of infarction volume", "setting": "[2]; alteplase alone 5.4 mg/kg given at 60 min after eMCAO", "value": 26, "unit": "%"}, {"measurement": "reduction of infarction volume", "setting": "[2]; alteplase alone 5.4 mg/kg given at 90 minutes after eMCAO", "value": 18, "unit": "%"}, {"measurement": "mortality in pilot studies", "setting": "[2]; rat, alteplase 10x human dose, hemorrhagic conversions of strokes", "value": "unacceptable mortality rates"}]}
{"molecule": "plasmin", "values": [{"measurement": "cleavage of nerinetide by plasmin, LC/MS of fragments after incubation in PBS at 37 C", "setting": "Tat-NR2B9c", "value": "Cleavage products consistent with these sites of cleavage were observed after incubating nerinetide (18 mg/mL) with plasmin (1 mg/mL) in phosphate-buffered saline at 37 °C and analyzing the samples by LC/MS"}]}
{"molecule": "B1", "values": [{"measurement": "half-life in human plasma", "setting": "[1]; has been reported", "value": "4 to 8", "unit": "h"}]}
